Assays:
Settings in all cases: both partners purified
[1] = biological target: T1, Bre1-LR (Bre1 residues 227–700, LBD and RING domains), 6× histidine tag (budding yeast, UniProt Q07457 227-700); assay: ITC; Lge1-CT (50–60 μM) injected into Bre1-LR (15 μM); 25°C, 20 mM TRIS (pH 7.5), 200 mM sodium chloride
T1 construct: two Bre1 polypeptides form the dimeric coiled-coils of the LBD in the crystal structure; also called WT; source: E. coli BL21 Rosetta (DE3), purified (Ni-NTA, heparin, gel filtration)
T1 sequence (looked up): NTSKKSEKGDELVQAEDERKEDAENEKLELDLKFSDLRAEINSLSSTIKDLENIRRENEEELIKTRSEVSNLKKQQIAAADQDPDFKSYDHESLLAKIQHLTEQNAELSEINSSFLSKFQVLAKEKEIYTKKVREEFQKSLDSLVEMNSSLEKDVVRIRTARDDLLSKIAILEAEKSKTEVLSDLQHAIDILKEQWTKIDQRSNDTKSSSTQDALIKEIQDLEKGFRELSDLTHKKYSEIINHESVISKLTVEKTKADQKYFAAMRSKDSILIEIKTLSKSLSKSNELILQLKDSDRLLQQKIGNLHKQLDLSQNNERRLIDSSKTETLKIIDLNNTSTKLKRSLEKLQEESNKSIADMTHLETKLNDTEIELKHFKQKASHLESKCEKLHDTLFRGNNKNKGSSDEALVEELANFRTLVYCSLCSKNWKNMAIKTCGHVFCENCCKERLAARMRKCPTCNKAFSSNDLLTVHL

[2] = biological target: T2, Bre1-LR E378K/E500K (budding yeast, UniProt Q07457 227-700, E378K | E500K); assay: as above
T2 construct: source: E. coli BL21 Rosetta (DE3), purified (Ni-NTA, heparin, gel filtration)
T2 sequence (looked up): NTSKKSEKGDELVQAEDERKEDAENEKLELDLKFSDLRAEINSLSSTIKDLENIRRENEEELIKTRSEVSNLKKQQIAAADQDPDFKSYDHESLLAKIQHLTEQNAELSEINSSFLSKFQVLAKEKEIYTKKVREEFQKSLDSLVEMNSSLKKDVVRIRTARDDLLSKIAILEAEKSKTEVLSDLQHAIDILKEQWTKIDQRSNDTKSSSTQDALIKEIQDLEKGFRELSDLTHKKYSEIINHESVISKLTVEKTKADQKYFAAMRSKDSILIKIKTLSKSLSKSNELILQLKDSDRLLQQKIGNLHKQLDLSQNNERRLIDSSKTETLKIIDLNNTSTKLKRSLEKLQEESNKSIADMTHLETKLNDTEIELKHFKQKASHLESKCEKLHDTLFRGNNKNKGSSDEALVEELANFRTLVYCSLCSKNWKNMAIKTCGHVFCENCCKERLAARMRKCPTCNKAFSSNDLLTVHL

[3] = biological target: T3, Bre1-LR K379A (budding yeast, UniProt Q07457 227-700, K379A); assay: as above
T3 construct: source: E. coli BL21 Rosetta (DE3), purified (Ni-NTA, heparin, gel filtration)
T3 sequence (looked up): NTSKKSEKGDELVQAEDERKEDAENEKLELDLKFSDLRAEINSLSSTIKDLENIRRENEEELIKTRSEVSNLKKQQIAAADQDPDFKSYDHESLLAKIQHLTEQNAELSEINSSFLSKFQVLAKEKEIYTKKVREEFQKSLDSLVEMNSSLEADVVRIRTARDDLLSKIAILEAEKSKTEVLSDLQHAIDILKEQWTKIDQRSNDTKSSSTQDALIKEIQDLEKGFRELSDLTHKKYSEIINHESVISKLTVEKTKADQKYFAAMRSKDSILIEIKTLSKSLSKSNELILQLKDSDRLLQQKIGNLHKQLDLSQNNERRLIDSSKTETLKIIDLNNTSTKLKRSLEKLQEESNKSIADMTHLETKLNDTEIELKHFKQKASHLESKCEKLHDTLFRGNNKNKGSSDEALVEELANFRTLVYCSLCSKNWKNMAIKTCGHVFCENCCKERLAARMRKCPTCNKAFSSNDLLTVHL

[4] = biological target: T4, Bre1-LR K534E (budding yeast, UniProt Q07457 227-700, K534E); assay: as above
T4 construct: source: E. coli BL21 Rosetta (DE3), purified (Ni-NTA, heparin, gel filtration)
T4 sequence (looked up): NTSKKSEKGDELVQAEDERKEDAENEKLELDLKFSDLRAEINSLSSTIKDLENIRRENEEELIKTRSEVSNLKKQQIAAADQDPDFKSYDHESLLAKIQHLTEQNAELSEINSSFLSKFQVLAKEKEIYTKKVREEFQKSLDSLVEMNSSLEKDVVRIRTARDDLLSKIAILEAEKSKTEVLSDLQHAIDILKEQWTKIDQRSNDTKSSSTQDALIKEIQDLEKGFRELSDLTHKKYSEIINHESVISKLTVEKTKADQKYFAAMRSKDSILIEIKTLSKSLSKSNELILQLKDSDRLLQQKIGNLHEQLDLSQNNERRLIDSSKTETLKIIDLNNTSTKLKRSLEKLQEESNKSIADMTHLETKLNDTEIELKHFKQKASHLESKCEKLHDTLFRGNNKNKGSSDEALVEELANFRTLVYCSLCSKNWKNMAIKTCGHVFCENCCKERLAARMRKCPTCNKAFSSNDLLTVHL

[5] = biological target: T4, Bre1-LR K534E; assay: SPR; Lge1-CT immobilised on a CM5 chip, Bre1-LR flown over; Biacore 8K, 25°C, 20 mM HEPES (pH 7.5), 200 mM sodium chloride, 0.02% Tween 20

Kd [1]: 24.5 ± 4.5 nM
dH [1]: -50.5 ± 1 kcal/mol
stoichiometry N [1]: 0.396 ± 0.003
Kd [2]: 98 ± 31.2 nM
dH [2]: -40.7 ± 1.9 kcal/mol
stoichiometry N [2]: 0.256 ± 0.007
Kd [3]: 82.3 ± 20 nM
dH [3]: -44.1 ± 1.8 kcal/mol
stoichiometry N [3]: 0.415 ± 0.007
Kd [4]: 36.9 ± 14.5 nM
dH [4]: -33.9 ± 2.1 kcal/mol
stoichiometry N [4]: 0.469 ± 0.008
Kd [5]: 19.4 nM
B1: Lge1-CT (Lge1 residues 261–332), intein-chitin binding domain (CBD) tag construct (domain or fragment, budding yeast, UniProt Q02796 261-332, looked up)
chain: KNVKKTNNTESECEKAREVFKESDSIDSALEELNLKINSNELELRLLNNQCDKHALNIQLTQEKLDSLLLMQ
notes: Lge1, budding yeast, residues 261-332; residues 268–331 resolved in the electron density; the intein-CBD tag is named on the protein in the pull-down; also called intein-CBD-fused Lge1-CT; intein-CBD-tagged Lge1-CT; source: E. coli BL21 Rosetta (DE3): cleared cell extract on chitin resin (pull-down); purified (chitin, heparin, gel filtration) for ITC and SPR; co-purified with Bre1-LR for the …

— article PMC12802937 (Nucleic Acids Research, 2026)
